As a reminder, the Kd is the constant that tells how readily two partners part at equilibrium. Read a high Kd as weaker binding.

One experiment addresses T1, Tie2 (UniProt Q02763 23-748, limits assumed).
T1 construct: also called Tie2 receptor
Nature of the experiment: BIAcore. Background: SPR reads the build-up and loss of mass on a sensor chip optically.

For experiment [1], the target named is IgG4 Fc*/Fc* monospecific antibody. Description: flow cytometry sandwich: antibody displayed on cells by CSCP FcγR, labeled Ab2 as detection molecule. In general terms: Flow cytometry measures light scatter and fluorescence of single cells or particles in a stream.
Experiment [2] addresses IgG1 Fc/Fc* bispecific antibody. Described as above.
Experiment [3] has as its target IgG4 Fc/Fc monospecific antibody. Described as above.
The target of experiment [4] is IgG1 Fc/Fc monospecific antibody. Described as above.
The target of experiment [5] is IgG4 Fc/Fc* bispecific antibody. The experiment is described as above.
Experiment [6] addresses IgG1 Fc/Fc* bispecific antibody. Nature of the experiment: flow cytometry sandwich: antibody displayed on cells by CSCP ScFv-FcγR, hFc block, FITC-labeled Ab6 as detection molecule.
Experiment [7] has as its target IgG4 Fc/Fc monospecific antibody. The experiment is described as above.
For experiment [8], the target named is IgG1 Fc/Fc monospecific antibody. Described as above.
Experiment [9] deals with IgG4 Fc/Fc* bispecific antibody. The experiment is described as above.
In experiment [10] the target is IgG1 Fc*/Fc* monospecific antibody. Nature of the experiment: flow cytometry sandwich: antibody displayed on cells by CSCP FcγR, labeled Ab6 as detection molecule.
Experiment [11] deals with IgG1 Fc/Fc* bispecific antibody. Described as above.
For experiment [12], the target named is IgG1 Fc/Fc monospecific antibody. The experiment is described as above.
The next experiment concerns the target T2, human Fc* homodimer (human).
T2 construct: also called Fc*/Fc*; human ΔAdpFc polypeptide
Description: SPR (Biacore 2000); mAb captured on anti-mouse-Fc surface, Fc dimer injected; 1:1 fit.

T1 sequence (Q02763 23-748 limits assumed): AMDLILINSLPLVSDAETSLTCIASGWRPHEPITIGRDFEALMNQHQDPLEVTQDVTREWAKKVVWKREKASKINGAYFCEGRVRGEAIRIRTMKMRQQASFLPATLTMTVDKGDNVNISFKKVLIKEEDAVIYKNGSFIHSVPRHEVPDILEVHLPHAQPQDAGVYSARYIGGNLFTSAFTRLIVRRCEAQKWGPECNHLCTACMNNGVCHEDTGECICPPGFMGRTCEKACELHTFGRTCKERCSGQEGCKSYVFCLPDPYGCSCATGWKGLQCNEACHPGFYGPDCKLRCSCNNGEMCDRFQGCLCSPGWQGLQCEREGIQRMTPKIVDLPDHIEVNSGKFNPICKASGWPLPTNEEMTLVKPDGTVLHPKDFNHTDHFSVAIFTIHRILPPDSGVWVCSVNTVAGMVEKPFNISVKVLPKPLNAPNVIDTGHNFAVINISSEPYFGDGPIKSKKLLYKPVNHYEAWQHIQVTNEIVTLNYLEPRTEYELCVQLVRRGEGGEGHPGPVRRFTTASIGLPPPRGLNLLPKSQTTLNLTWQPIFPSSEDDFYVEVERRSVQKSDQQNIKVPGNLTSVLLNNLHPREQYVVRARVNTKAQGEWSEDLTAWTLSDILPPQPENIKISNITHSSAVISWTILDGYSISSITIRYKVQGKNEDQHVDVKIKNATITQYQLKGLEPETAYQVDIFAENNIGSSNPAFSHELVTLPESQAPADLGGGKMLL
Description for human Fc* homodimer: Measurements to determine binding affinities and kinetic constants were made on a Biacore 2000 instrument. […] Kinetic association (kₐ) and dissociation (kd) rate constants were determined by processing and fitting the data to a 1:1 binding model using Scrubber 2.0 curve fitting software.

B1: FD1-hFc (Fc fusion, UniProt Q15389 277-498, looked up)
chain: REEEKPFRDCADVYQAGFNKSGIYTIYINNMPEPKKVFCNMDVNGGGWTVIQHREDGSLDFQRGWKEYKMGFGNPSGEYWLGNEFIFAITSQRQYMLRIELMDWEGNRAYSQYDRFHIGNEKQNYRLYLKGHTGTAGKQSSLILHGADFSTKDADNDNCMCKCALMLTGGWWFDACGPSNLNGMFYTAGQNHGKLNGIKWHYFKGPSYSLRSTTMMIRPLDF
notes: also called FD1-Fc; not shown: hFc
As to B1, the affinity with Tie2, expressed as Kd, was 174 nM. In other words, the sub-micromolar range.

B2: Ab2 (antibody, V domains shown)
VH: QLQQSGAELAKPGASVKMSCKASGYTFTNYWIHWEKQRPEQGLEWIGYINPNTGHTEYNQKFKDKATLTADRSSSTAYMQLSSLTSEDSAVYFCARTYSGSSHFDYWGQGTTL
VL: DIVMTQTPVSLPVSLGDQASISCRSSQSLVHNNGDTFLHWYLQKPGQSPKLLIYKVSNRFSGVPDRFSGSGSGTDFTLKISRVEAEDLGVYFCSQTTLIPRTFGGGTKLEI
notes: Monoclonal from Velocimmune mice, captured on an anti-mouse-Fc surface in the SPR study; also called Fc-specific Ab2; Ab2 anti-Fc antibody
Regarding B2, the MFI in [1] was 200; in [2], 500; in experiment [3] it was 200; in [4], 350; in experiment [5], 200.

B3: Ab6 (antibody, mouse IgG2a, kappa, V domains shown)
VH: EVQLVESGGAIVKPGGSHRVSCEASGFTFSNAWMSWVRQAPGRGLEWVGRILSKTDGGTTDYAAPVKDRFTISRDDSKNMLFLQMDSLKIEDTAVYFCTTADFWSAYSSDYWGQGTLVTVSS
VL: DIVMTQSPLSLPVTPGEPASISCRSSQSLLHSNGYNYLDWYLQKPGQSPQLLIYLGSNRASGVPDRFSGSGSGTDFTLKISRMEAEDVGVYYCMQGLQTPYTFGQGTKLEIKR
notes: also called Fc*-specific Ab6; Ab6 anti-Fc* antibody
For the molecule B3, the MFI in experiment [6] was 500; in experiment [7], 15; in [8] it was 15; in [9], 500; in experiment [10], 200; in experiment [11], 200. Besides, the MFI in [12] amounted to 200. This molecule also yielded a t1/2 with human Fc* homodimer of 19 min.

(Values after patent US20210009714A1 (Regeneron, published 2021).)
